The text below walks through data of patent US20140303084A1 (Biogen, published 2014).

Numbering of substitutions follows the chain as printed. Square brackets hold non-standard residues; d marks the D form. Primed or numbered codes have the meaning given here. Ends that are not written are not given here. Pra = C#CC[C@H](N)C(=O)O; PEG4′ = PEG4 spacer A value given as a limit tells only on which side of the number the result lay.

To fix the notation:
B1: RRAPGKLTCLASYCWLF WTGWA VLARVPVGWT (peptide)
peptide: RRAPGKLTCLASYCWLFWTGWAVLARVPVGWT
B2: RRAPGKLTCLASYCWLF QTGWA YWGYRQHPGS (peptide)
peptide: RRAPGKLTCLASYCWLFQTGWAYWGYRQHPGS
B3: compound A (peptide)
peptide: WSLCFKLTCAYL-NH2
modifications: cysteine pairing not given here
B4: compound 3 (peptide)
peptide: RRAPGKLQCLASYCWLFWTGIA-NH2
modifications: not fully specified (bridges); cysteine pairing not given here
B5: GYRVPVGGLV RRAHG KLTCLASYCWLFWTGIA (peptide)
peptide: GYRVPVGGLVRRAHGKLTCLASYCWLFWTGIA
B6: RRAPGKLTCLASYCWLF EPGIA QPYAKSPTRN (peptide)
peptide: RRAPGKLTCLASYCWLFEPGIAQPYAKSPTRN
B7: SRIRTVGPGSRSASGKLTCLASYCWLFWTGIA (peptide)
peptide: SRIRTVGPGSRSASGKLTCLASYCWLFWTGIA
B8: PRIRTVGPGSRSASGKLTCLASYCWLFWSGIA (peptide)
peptide: B7 peptide with S1P, T29S
B9: PRIRTVGPGSRSASGKLTCLASYCWLFFTGIA (peptide)
peptide: B7 peptide with S1P, W28F
B10: PRIRTVGPGSRSASGKSTCLASYCWLFWTGIA (peptide)
peptide: B7 peptide with S1P, L17S
B11: PRIRTVSPGSRSASGKSTCLASYCWLFWTGIA (peptide)
peptide: B7 peptide with S1P, G7S, L17S
B12: PRIRTVGPGSRSASGKLTCLASYCWLAWTGIA (peptide)
peptide: B7 peptide with S1P, F27A
B13: SRIRTVSPGSRSASGKSTCLASYCWLFWTGIA (peptide)
peptide: B7 peptide with G7S, L17S
B14: PRSRTVGPGSRSASGKLTCLASYCWLFWTGIA (peptide)
peptide: B7 peptide with S1P, I3S
B15: PRIRTVSPGSRSASGKLTCLASYCWLFWTGIA (peptide)
peptide: B7 peptide with S1P, G7S
B16: PRIRTVGPGSRSASGKLTCLASYCWLLWTGIA (peptide)
peptide: B7 peptide with S1P, F27L
B17: PRIRTVGPGSRSASGKLTCLASYCWLFWTFIA (peptide)
peptide: B7 peptide with S1P, G30F
B18: PRISTVGPGSRSASGKLTCLASYCWLFWTGIA (peptide)
peptide: B7 peptide with S1P, R4S
B19: SRSRTVSPGSRSASGKSTCLASYCWLFWTGIA (peptide)
peptide: B7 peptide with I3S, G7S, L17S
B20: PRIRTVGPGSRSASGKLTCLASYCWLFWTLIA (peptide)
peptide: B7 peptide with S1P, G30L
B21: PRIRTVGPGSRSASGKLTCLASYCWLFATGIA (peptide)
peptide: B7 peptide with S1P, W28A
B22: SRIRTVGPGSRSASGKSTCLASYCWLFWTGIA (peptide)
peptide: B7 peptide with L17S
B23: PRIRTVGSGSRSASGKLTCLASYCWLFWTGIA (peptide)
peptide: B7 peptide with S1P, P8S
B24: PRIRTVGPGSRSASGKLTCLASYCWLFLTGIA (peptide)
peptide: B7 peptide with S1P, W28L
B25: PRIRTSGPGSRSASGKLTCLASYCWLFWTGIA (peptide)
peptide: B7 peptide with S1P, V6S
B26: PSIRTVGPGSRSASGKLTCLASYCWLFWTGIA (peptide)
peptide: B7 peptide with S1P, R2S
modifications: not fully specified; cysteine pairing not given here
B27: PRSRTVGPGSRSASGKSTCLASYCWLFWTGIA (peptide)
peptide: B7 peptide with S1P, I3S, L17S
B28: PRIRTVGPSSRSASGKLTCLASYCWLFWTGIA (peptide)
peptide: B7 peptide with S1P, G9S
B29: PRIRSVGPGSRSASGKLTCLASYCWLFWTGIA (peptide)
peptide: B7 peptide with S1P, T5S
B30: PRIRTVGPGSRSASGKLTCLASYCWLFWTSIA (peptide)
peptide: B7 peptide with S1P, G30S
B31: TSGPFGFGGS SRAQG KLTCLASYCWLFWTGIA (peptide)
peptide: TSGPFGFGGSSRAQGKLTCLASYCWLFWTGIA
B32: Pra-PEG4-PRIrTVGPGSrSASGKSTCLASYCWLFWTGIA (peptide)
peptide: [Pra][PEG4′]PRI[dR]TVGPGS[dR]SASGKSTCLASYCWLFWTGIA
modifications: not fully specified (C-terminus); printed as Pra-PEG4-PRIrTVGPGSrSASGKSTCLASYCWLFWTGIA; cysteine pairing not given here
B33: TGLLQGRRDE RARPP KLTCLASYCWLFWTGIA (peptide)
peptide: TGLLQGRRDERARPPKLTCLASYCWLFWTGIA
B34: RRAPGKLTCLASYCWLF WTGYA SGKPSRVYVI (peptide)
peptide: RRAPGKLTCLASYCWLFWTGYASGKPSRVYVI
B35: VGSGDERALP SRASG KLTCLASYCWLFWTGIA (peptide)
peptide: VGSGDERALPSRASGKLTCLASYCWLFWTGIA
B36: HLFGADWLGA RTAPG KLTCLASYCWLFWTGIA (peptide)
peptide: HLFGADWLGARTAPGKLTCLASYCWLFWTGIA
B37: RRAPGKLTCLASYCWLF WTGLS RYQWQAQEDV (peptide)
peptide: RRAPGKLTCLASYCWLFWTGLSRYQWQAQEDV
B38: PRIRTVGPGSRSASGKLTCLASYCWLFWTGI (peptide)
peptide: PRIRTVGPGSRSASGKLTCLASYCWLFWTGI
B39: RRAPGKLTCLASYCWLF WRGFA ERASEDTNQG (peptide)
peptide: RRAPGKLTCLASYCWLFWRGFAERASEDTNQG
B40: PRIrTVGPGSrSASGKSTCLASYCWLFWTGIA-PEG4-Pra (peptide)
peptide: PRIRTVGPGSRSASGKSTCLASYCWLFWTGIAX
modifications: not fully specified; D-Arg 4, D-Arg 11, C-terminal PEG4-Pra
B41: AVDSLPLYGA RSAPS KLTCLASYCWLFWTGIA (peptide)
peptide: AVDSLPLYGARSAPSKLTCLASYCWLFWTGIA
modifications: not fully specified; cysteine pairing not given here
B42: RRAPGKLTCLASYCWLF WTGWC RDTASHACDS (peptide)
peptide: RRAPGKLTCLASYCWLFWTGWCRDTASHACDS
B43: QRAGRVARLH RRAPN KLTCLASYCWLFWTGIA (peptide)
peptide: QRAGRVARLHRRAPNKLTCLASYCWLFWTGIA
B44: PSGWAGWAPG RREPG KLTCLASYCWLFWTGIA (peptide)
peptide: PSGWAGWAPGRREPGKLTCLASYCWLFWTGIA
B45: WRAGLDESQR DRAPG KLTCLASYCWLFWTGIA (peptide)
peptide: WRAGLDESQRDRAPGKLTCLASYCWLFWTGIA
B46: RRAPGKLTCLASYCWLF WTGLA STLYKTYTRE (peptide)
peptide: RRAPGKLTCLASYCWLFWTGLASTLYKTYTRE
B47: RRAPGKLTCLASYCWLF STPVA RKSLRRHQPT (peptide)
peptide: RRAPGKLTCLASYCWLFSTPVARKSLRRHQPT
modifications: not fully specified (C-terminus); cysteine pairing not given here
B48: LQLSYGEQRQ SRAPG KLTCLASYCWLFWTGIA (peptide)
peptide: LQLSYGEQRQSRAPGKLTCLASYCWLFWTGIA
B49: TQWAQVGPRG RRAQG KLTCLASYCWLFWTGIA (peptide)
peptide: TQWAQVGPRGRRAQGKLTCLASYCWLFWTGIA
B50: RRAPGKLTCLASYCWLF STGVA THANTTATAQ (peptide)
peptide: RRAPGKLTCLASYCWLFSTGVATHANTTATAQ
B51: TLWPWGGQGG RNAPG KLTCLASYCWLFWTGIA (peptide)
peptide: TLWPWGGQGGRNAPGKLTCLASYCWLFWTGIA
B52: RRAPGKLTCLASYCWLF WTGFA FRVGLASSLY (peptide)
peptide: RRAPGKLTCLASYCWLFWTGFAFRVGLASSLY

For the test, the target named is human Factor IXa (human, UniProt P00740 47-191; P00740 227-461). As to the kind of experiment: cell-based or functional assay.
For B1, the “EC50 [µM], FXa generation assay” value was < 0.5 µM.

Consider B2, for which the “EC50 [µM], FXa generation assay” value was < 0.5 µM.

As to B3, the “EC50 [µM], FXa generation assay with hFIXa” value was > 100 µM.

As to B4, the “EC50 [µM], FXa generation assay with hFIXa” value is < 0.5 µM.

On to B5, for which the “EC50 [µM], FXa generation assay” value is > 1 µM.

With B6, the “EC50 [µM], FXa generation assay” value is > 1 µM.

For B7, the “EC50 [µM], FXa generation assay” value was < 0.5 µM.

On to B8, for which the “EC50 [µM], FXa generation assay” value was < 0.5 µM.

Regarding B9, the “EC50 [µM], FXa generation assay” value is < 0.5 µM.

In the case of B10, the “EC50 [µM], FXa generation assay” value is < 0.5 µM.

On to B11, for which the “EC50 [µM], FXa generation assay” value was < 0.5 µM.

On to B12, for which the “EC50 [µM], FXa generation assay” value was > 1 µM.

For B13, the “EC50 [µM], FXa generation assay” value was < 0.5 µM.

As for B14, the “EC50 [µM], FXa generation assay” value is < 0.5 µM.

With B15, the “EC50 [µM], FXa generation assay” value was < 0.5 µM.

Take B16: the “EC50 [µM], FXa generation assay” value was < 0.5 µM.

With B17, the “EC50 [µM], FXa generation assay” value is < 0.5 µM.

As for B18, the “EC50 [µM], FXa generation assay” value was < 0.5 µM.

As for B19, the “EC50 [µM], FXa generation assay” value is < 0.5 µM.

As for B20, the “EC50 [µM], FXa generation assay” value is < 0.5 µM.

As to B21, the “EC50 [µM], FXa generation assay” value was < 0.5 µM.

Regarding B22, the “EC50 [µM], FXa generation assay” value was < 0.5 µM.

Consider B23, for which the “EC50 [µM], FXa generation assay” value was < 0.5 µM.

For the molecule B24, the “EC50 [µM], FXa generation assay” value is < 0.5 µM.

For the molecule B25, the “EC50 [µM], FXa generation assay” value was < 0.5 µM.

As to B26, the “EC50 [µM], FXa generation assay” value is < 0.5 µM.

In the case of B27, the “EC50 [µM], FXa generation assay” value is < 0.5 µM.

In the case of B28, the “EC50 [µM], FXa generation assay” value is < 0.5 µM.

Consider B29, for which the “EC50 [µM], FXa generation assay” value was < 0.5 µM.

Take B30: the “EC50 [µM], FXa generation assay” value was < 0.5 µM.

In the case of B31, the “EC50 [µM], FXa generation assay” value is > 1 µM.

For B32, the “EC50 [µM], FXa generation assay” value is > 1 µM.

Consider B33, for which the “EC50 [µM], FXa generation assay” value was < 0.5 µM.

B34: the “EC50 [µM], FXa generation assay” value is > 1 µM.

Take B35: the “EC50 [µM], FXa generation assay” value was < 0.5 µM.

On to B36, for which the “EC50 [µM], FXa generation assay” value is > 1 µM.

B37: the “EC50 [µM], FXa generation assay” value is > 1 µM.

Turning to B38, the “EC50 [µM], FXa generation assay” value is < 0.5 µM.

For B39, the “EC50 [µM], FXa generation assay” value is > 1 µM.

Regarding B40, the “EC50 [µM], FXa generation assay” value was < 0.5 µM.

On to B41, for which the “EC50 [µM], FXa generation assay” value is < 0.5 µM.

In the case of B42, the “EC50 [µM], FXa generation assay” value was > 1 µM.

On to B43, for which the “EC50 [µM], FXa generation assay” value is > 1 µM.

B44: the “EC50 [µM], FXa generation assay” value is > 1 µM.

B45: the “EC50 [µM], FXa generation assay” value was < 0.5 µM.

For B46, the “EC50 [µM], FXa generation assay” value is > 1 µM.

With B47, the “EC50 [µM], FXa generation assay” value was > 10 µM.

With B48, the “EC50 [µM], FXa generation assay” value is < 0.5 µM.

As to B49, the “EC50 [µM], FXa generation assay” value was < 0.5 µM.

Regarding B50, the “EC50 [µM], FXa generation assay” value is > 1 µM.

Regarding B51, the “EC50 [µM], FXa generation assay” value is > 1 µM.

Consider B52, for which the “EC50 [µM], FXa generation assay” value is < 0.5 µM.
